These results are taken from patent publication US20250353907A1 (SHANGHAI SIMNOVA BIOTECHNOLOGY, published 2025).

The experiment concerns the target T1, recombinant human CD19-His (human, UniProt P15391 20-291, limits assumed).
T1 construct: This is the analyte in SPR; also called human CD19 protein; CD19 antigen protein; not shown: His tag
T1 sequence (looked up): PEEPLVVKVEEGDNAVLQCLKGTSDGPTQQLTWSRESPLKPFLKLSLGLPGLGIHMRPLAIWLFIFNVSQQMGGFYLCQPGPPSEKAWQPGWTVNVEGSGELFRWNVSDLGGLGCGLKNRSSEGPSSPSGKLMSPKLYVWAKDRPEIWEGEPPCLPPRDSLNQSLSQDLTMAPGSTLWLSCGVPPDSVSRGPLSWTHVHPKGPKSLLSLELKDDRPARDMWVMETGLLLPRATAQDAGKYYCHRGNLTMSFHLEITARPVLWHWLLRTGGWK
The experiment is described as follows: SPR (Biacore), CD19-His as analyte, 1:1 Langmuir model. As for the experimental part:
The anti-human CD19 antibody was captured using a Protein A chip (GE Healthcare; 29-127-558).
The sample and running buffer was HBS-EP+ (10 mM HEPES, 150 mM NaCl, 3 mM EDTA, 0.05% surfactant P20) (GE Healthcare; BR-1006-69). The flow cell was set at 25° C. The sample block was set at 16° C. Both were pretreated with the running buffer. In each cycle, first, the antibody to be tested was captured using the Protein A chip, and then a single concentration of CD19 antigen protein was injected. The association and dissociation processes of the antibody with the antigen protein were recorded, and finally, the chip was regenerated using Glycine pH 1.5 (GE Healthcare; BR-1003-54). The association was determined by injecting different concentrations of recombinant human CD19-His in the solution and maintaining for 240 s, wherein the flow rate was 30 μL/min, and the protein was diluted in a 1:1 dilution ratio from 200 nM (see detailed results for actual concentrations tested) to obtain 5 concentrations in total. The dissociation phase was monitored for up to 600 s and triggered by switching from the sample solution to the running buffer. The surface was regenerated by washing with 10 mM glycine solution (pH 1.5) at a flow rate of 30 μL/min for 30 s. The difference in bulk refractive index was corrected by subtracting the responses obtained from the […]. Blank injections were also subtracted (=double reference). The Langmuir 1:1 model was used to calculate the apparent KD and other kinetic parameters.

B1: hFMC63 (humanized FMC63, hFMC63-VH1 + hFMC63-VL1) (antibody, V domains shown)
VH: EVTLKESGPVLVKPTETLTLTCTVSGFSLSDYGVSWIRQPPGKALEWLAVIWGSETTYYNSALKSRLTISKDTSKSQVVLTMTNMDPVDTATYYCAKHYYYGGSYAMDYWGQGTTVTVSS
VL: DIQMTQSPSSLSASVGDRVTITCRASQDISKYLNWYQQKPGGAVKLLIYHTSRLHSGVPSRFSGSGSGTDYTLTISSLQPEDFATYYCQQGNTLPYTFGGGTKVEIK
B1: the Kd is 0.0195 nM, the koff worked out at 1.8e-06 s⁻¹ and the association rate constant (kon) was determined as 92400 M⁻¹ s⁻¹.
